Target: T1, cynomolgus CD38 (cynomolgus monkey, UniProt Q5VAN0 1-301)
T1 construct: In the assays it is native CD38 on cynomolgus monkey blood lymphocytes; also called cyno CD38; monkey CD38
Experiment: Flow cytometry of cynomolgus monkey whole blood stained with labelled AB79. MFI converted to MOEF with Rainbow Beads. NK (CD3-, CD159a+), B (CD3-, CD20+) and T (CD3+) cells; 3 individuals, mean with SD.
Description: The flow cytometric measurements were standardized and the signals are reported in molecules of equivalent soluble fluorescence (MOEF). […] Direct comparison of CD38 expression levels on monkey NK cells (CD3−, CD159a+), B cells (CD3−, CD20+) and T cells (CD3+) and human NK cells (CD3−, CD16/CD56+), B cells (CD3−, CD19+) and T cells (CD3+) were evaluated by flow cytometry.
An aliquot of blood (100 μL) was mixed with appropriate volume of antibody (FIG. 1) and incubated for 15-20 minutes at RT in the dark. After incubation, 1 mL of BD FACS lyse (1×; BD Biosciences; San Jose, Calif.) was added to lyse red blood cells and the cells incubated for 10 minutes at RT in the dark, then centrifuged, decanted and resuspended in 1 mL of staining buffer with bovine serum albumin (BD Biosciences).

T1 sequence (Q5VAN0 whole entry): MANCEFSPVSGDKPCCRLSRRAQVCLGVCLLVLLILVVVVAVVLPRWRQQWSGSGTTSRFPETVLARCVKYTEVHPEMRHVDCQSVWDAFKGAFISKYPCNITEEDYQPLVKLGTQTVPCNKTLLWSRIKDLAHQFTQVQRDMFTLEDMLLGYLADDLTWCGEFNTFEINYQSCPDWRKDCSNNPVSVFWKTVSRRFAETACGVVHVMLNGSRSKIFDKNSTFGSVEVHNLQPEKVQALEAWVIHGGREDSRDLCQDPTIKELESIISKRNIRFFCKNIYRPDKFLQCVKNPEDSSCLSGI

B1: AB79 (antibody, human IgG1, lambda, V domains shown)
VH: EVQLLESGGGLVQPGGSLRLSCAASGFTFDDYGMSWVRQAPGKGLEWVSDISWNGGKTHYVDSVKGQFTISRDNSKNTLYLQMNSLRAEDTAVYYCARGSLFHDSSGFYFGHWGQGTLVTVSS
VL: QSVLTQPPSASGTPGQRVTISCSGSSSNIGDNYVSWYQQLPGTAPKLLIYRDSQRPSGVPDRFSGSKSGTSASLAISGLRSEDEADYYCQSYDSSLSGSVFGGGTKLTVLG
B1: binds.

Reference: patent US20210047427A1 (Takeda / Millennium, published 2021)
